The source of these data is publication doi:10.1101/2020.03.22.002394.

Where only a bound is given, the exact number is not on record here.

In assay [1] the target is murine κ-opioid receptor (κOR-GFP and SNAP-κOR, two differently tagged copies co-expressed) (murine) (UniProt P33534). As to the kind of experiment: PhotoGate single-molecule co-localisation imaging.
Assay [2] deals with murine κ-opioid receptor, split GFP pair (SNAP-κOR-GFP10 and κOR-GFP11-mKate co-expressed) (murine) (UniProt P33534). The assay is described as follows: split reporter.

Consider “murine κ-opioid receptor (κOR-GFP and SNAP-κOR, two differently tagged copies co-expressed) (from UniProt P33534 1-380)”, for which, in assay [1], the co-localization time was 476 ms, the dimeric fraction was under 100%, the fraction of receptors in yellow spots turned out to be 33% and the yellow fraction at a density of 14 / µm^2 was 10%. This substance also had a yellow fraction at densities of > 100 / µm^2 in assay [1] of 46%.

As for “murine κ-opioid receptor, split GFP pair (SNAP-κOR-GFP10 and κOR-GFP11-mKate co-expressed) (from UniProt P33534 1-380)”, in assay [2], the GFP-positive fraction was found to be 91%.
